Source: the supplement of paper PMC9732359
± gives the uncertainty stated by the source.

Test: protein stability index of a GFP-peptide fusion (yeast GPS) (PSI 1-4); higher = more stable; sorted into four equal gates, so the index is relative within each strain
Procedure, shortened: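 Yeast carrying a pooled library were grown to mid-log phase in leucine-free medium. Each library plasmid expresses Cherry and has a tiled 17-residue yeast protein peptide fused downstream of GFP. Cells were sorted into four equal gates by GFP/Cherry ratio, and plasmids from each gate were PCR-amplified, Illumina-sequenced and assigned to strains by barcode. Summing, across gates, the read frequency times the gate number gave each peptide's protein stability index.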

STKKKILGIHTSKMNLS [RPT2]
protein stability index (doa10∆): 3.47 ± 0.13 | protein stability index (pdr5∆): 3.21 ± 0.096 | protein stability index (san1∆): 3.42 ± 0.071 | protein stability index (ubr1∆): 3.05 ± 0.073

AQQKLKQNPGLMQNMMN [SRP54]
protein stability index (doa10∆): 2.74 ± 0.056 | protein stability index (pdr5∆): 2.42 ± 0.059 | protein stability index (san1∆): 2.79 ± 0.044 | protein stability index (ubr1∆): 2.54 ± 0.033

NRRGMLALSGTSASNTS [SNF5]
protein stability index (doa10∆): 3.02 ± 0.064 | protein stability index (pdr5∆): 3.1 ± 0.064 | protein stability index (san1∆): 2.86 ± 0.064 | protein stability index (ubr1∆): 2.92 ± 0.066

NNWFSLPGDMLAVCDEL [SIN4]
protein stability index (doa10∆): 2.33 ± 0.073 | protein stability index (pdr5∆): 2.21 ± 0.079 | protein stability index (san1∆): 1.73 ± 0.13 | protein stability index (ubr1∆): 1.85 ± 0.067

ISPKGGRRISENGQRDL [RPS19A]
protein stability index (pdr5∆): 2.81 ± 0.2 | protein stability index (san1∆): 3.19 ± 0.13 | protein stability index (ubr1∆): 2.86 ± 0.11

PISKHSKQAIYTRATAS [RPS25A]
protein stability index (doa10∆): 1.86 ± 0.055 | protein stability index (pdr5∆): 1.86 ± 0.044 | protein stability index (san1∆): 1.64 ± 0.08 | protein stability index (ubr1∆): 1.81 ± 0.038

QTENDLKDIEARIKEKA [RPT1]
protein stability index (doa10∆): 2.8 ± 0.13 | protein stability index (pdr5∆): 2.91 ± 0.11 | protein stability index (san1∆): 3.03 ± 0.099 | protein stability index (ubr1∆): 3.37 ± 0.065

HRTIVIRRAYLHYIPKY [RPS11A]
protein stability index (doa10∆): 1.87 ± 0.048 | protein stability index (pdr5∆): 1.55 ± 0.042 | protein stability index (san1∆): 1.84 ± 0.07 | protein stability index (ubr1∆): 1.74 ± 0.031

SDPMLQRTATLCLEKLM [YCS4]
protein stability index (doa10∆): 1.47 ± 0.21 | protein stability index (ubr1∆): 1.14 ± 0.17

ILSNVDLAMANSLRRVM [RPB3]
protein stability index (doa10∆): 2.75 ± 0.055 | protein stability index (pdr5∆): 2.54 ± 0.047 | protein stability index (san1∆): 2.66 ± 0.071 | protein stability index (ubr1∆): 2.46 ± 0.037

AFTRKQANQVKRHSYAQ [RPS1A]
protein stability index (doa10∆): 1.8 ± 0.024 | protein stability index (pdr5∆): 1.75 ± 0.024 | protein stability index (san1∆): 2.03 ± 0.034 | protein stability index (ubr1∆): 2.01 ± 0.027

ESEQELSLHTGFIENCN [MTR3]
protein stability index (doa10∆): 2.62 ± 0.067 | protein stability index (pdr5∆): 2.99 ± 0.067 | protein stability index (san1∆): 2.88 ± 0.063 | protein stability index (ubr1∆): 2.93 ± 0.053

KTGITKKDEDEEADEDM [PRE9]
protein stability index (doa10∆): 3.37 ± 0.13 | protein stability index (pdr5∆): 3.7 ± 0.26 | protein stability index (san1∆): 3.5 ± 0.11 | protein stability index (ubr1∆): 2.95 ± 0.23

ADTLDPALLRPGRLDRK [RPT3]
protein stability index (doa10∆): 3.57 ± 0.17 | protein stability index (pdr5∆): 3.56 ± 0.16 | protein stability index (san1∆): 3.26 ± 0.23 | protein stability index (ubr1∆): 3.3 ± 0.2

NYLLKRNEDARRNLRYG [RPO31]
protein stability index (doa10∆): 3.35 ± 0.1 | protein stability index (pdr5∆): 3.41 ± 0.094 | protein stability index (san1∆): 3.51 ± 0.12 | protein stability index (ubr1∆): 3.56 ± 0.056

QQMHEVRKELRGRAVVL [RPP0]
protein stability index (doa10∆): 3.01 ± 0.14 | protein stability index (pdr5∆): 3.05 ± 0.13 | protein stability index (san1∆): 3.27 ± 0.099 | protein stability index (ubr1∆): 2.58 ± 0.073

ADINLEESIRESLQKRE [SIR3]
protein stability index (doa10∆): 3.4 ± 0.085 | protein stability index (pdr5∆): 3.28 ± 0.088 | protein stability index (san1∆): 3.09 ± 0.12 | protein stability index (ubr1∆): 3.36 ± 0.062

VSSKCNDIHLRFMRFLA [ECM29]
protein stability index (doa10∆): 2.23 ± 0.083 | protein stability index (pdr5∆): 2.38 ± 0.06 | protein stability index (san1∆): 2.74 ± 0.18 | protein stability index (ubr1∆): 2.08 ± 0.08

YLCFILSTRAGGLGLNL [SNF2]
protein stability index (doa10∆): 2.32 ± 0.08 | protein stability index (pdr5∆): 2.04 ± 0.095 | protein stability index (san1∆): 2.19 ± 0.12 | protein stability index (ubr1∆): 2.6 ± 0.11

DPLLAGLGETSGDNHTQ [RPT4]
protein stability index (doa10∆): 2.77 ± 0.26 | protein stability index (pdr5∆): 3.43 ± 0.21 | protein stability index (san1∆): 3.5 ± 0.19 | protein stability index (ubr1∆): 3.25 ± 0.16

SHTSLVKIGKFIPHGLK [SRB8]
protein stability index (doa10∆): 1.71 ± 0.053 | protein stability index (pdr5∆): 1.73 ± 0.045 | protein stability index (san1∆): 1.97 ± 0.084 | protein stability index (ubr1∆): 1.55 ± 0.054

YRFYEYIYSQETKSWIN [MED1]
protein stability index (doa10∆): 1.7 ± 0.065 | protein stability index (pdr5∆): 1.93 ± 0.06 | protein stability index (san1∆): 1.53 ± 0.11 | protein stability index (ubr1∆): 1.82 ± 0.042

EMLEENFPEASKLSEHL [YCG1]
protein stability index (doa10∆): 2.55 ± 0.28 | protein stability index (pdr5∆): 2.29 ± 0.24 | protein stability index (san1∆): 2.82 ± 0.19 | protein stability index (ubr1∆): 2.49 ± 0.15

LTCLPVPPPPVRPSISF [RPO21]
protein stability index (doa10∆): 2.28 ± 0.03 | protein stability index (pdr5∆): 2.44 ± 0.031 | protein stability index (san1∆): 2.36 ± 0.033 | protein stability index (ubr1∆): 2.33 ± 0.026

HTEDEQIEKKKICRGRM [SIR4]
protein stability index (doa10∆): 3.52 ± 0.17 | protein stability index (pdr5∆): 3.38 ± 0.12 | protein stability index (san1∆): 3.48 ± 0.13 | protein stability index (ubr1∆): 3.16 ± 0.083

IHLQRFDEGTTLLSPKD [RPO21]
protein stability index (doa10∆): 2.94 ± 0.14 | protein stability index (pdr5∆): 2.57 ± 0.14 | protein stability index (san1∆): 2.91 ± 0.16 | protein stability index (ubr1∆): 2.98 ± 0.2

TQKRTHVLKKNPLKNKQ [RPL4A]
protein stability index (pdr5∆): 2.52 ± 0.22 | protein stability index (ubr1∆): 2.99 ± 0.14

GLGMISASHILIPASDL [PRP8]
protein stability index (doa10∆): 2.06 ± 0.05 | protein stability index (pdr5∆): 2.41 ± 0.043 | protein stability index (san1∆): 1.75 ± 0.06 | protein stability index (ubr1∆): 2.19 ± 0.036

NGSSDASSLRFGNSLSN [YDL088C/ASM4]
protein stability index (doa10∆): 2.77 ± 0.071 | protein stability index (pdr5∆): 2.76 ± 0.075 | protein stability index (san1∆): 2.69 ± 0.05 | protein stability index (ubr1∆): 2.56 ± 0.1

KPTVILKLLKENIIQME [FAS1]
protein stability index (doa10∆): 1.38 ± 0.087 | protein stability index (pdr5∆): 1.36 ± 0.12 | protein stability index (san1∆): 1.24 ± 0.11 | protein stability index (ubr1∆): 1.1 ± 0.11

SVVRGNTFKVLSKFFFF [COB]
protein stability index (doa10∆): 2.11 ± 0.065 | protein stability index (pdr5∆): 2.2 ± 0.13 | protein stability index (san1∆): 2.44 ± 0.093 | protein stability index (ubr1∆): 1.83 ± 0.069

PLSLTHRDKNKMDMICR [DIS3]
protein stability index (doa10∆): 3.24 ± 0.13 | protein stability index (pdr5∆): 3.43 ± 0.16 | protein stability index (san1∆): 3.23 ± 0.13 | protein stability index (ubr1∆): 3.16 ± 0.18

PEEATTIFSVMVEWLES [PRP8]
protein stability index (doa10∆): 1.76 ± 0.076 | protein stability index (pdr5∆): 1.26 ± 0.093 | protein stability index (san1∆): 1.28 ± 0.14 | protein stability index (ubr1∆): 1.77 ± 0.13

VPKHMLDKLDEILYYQI [AAR2]
protein stability index (doa10∆): 2.91 ± 0.069 | protein stability index (pdr5∆): 3 ± 0.099 | protein stability index (san1∆): 2.95 ± 0.076 | protein stability index (ubr1∆): 3.17 ± 0.063

PYFDYIFNDILAHVDQI [YJL039C/NUP192]
protein stability index (doa10∆): 1.9 ± 0.11 | protein stability index (pdr5∆): 1.89 ± 0.077 | protein stability index (san1∆): 2.39 ± 0.099 | protein stability index (ubr1∆): 1.94 ± 0.054

TNLGQPHSLATKTTGKC [RPS2]
protein stability index (doa10∆): 2.44 ± 0.13 | protein stability index (pdr5∆): 2.69 ± 0.13 | protein stability index (san1∆): 2.38 ± 0.088 | protein stability index (ubr1∆): 2.5 ± 0.11

KLLATSTKIIMLLLNDS [SRB8]
protein stability index (doa10∆): 1.57 ± 0.065 | protein stability index (pdr5∆): 1.46 ± 0.059 | protein stability index (san1∆): 1.48 ± 0.16 | protein stability index (ubr1∆): 1.23 ± 0.071

NKTDAQAPTTGFSFGSQ [YJL041W/NSP1]
protein stability index (doa10∆): 2.91 ± 0.064 | protein stability index (pdr5∆): 2.98 ± 0.06 | protein stability index (san1∆): 3.28 ± 0.077 | protein stability index (ubr1∆): 3.07 ± 0.069

GSMTKTWYVGNSRGKFD [SSN2]
protein stability index (doa10∆): 3.74 ± 0.26 | protein stability index (san1∆): 3.08 ± 0.24

ITSFDQDVDDAHAIDQM [POP8]
protein stability index (doa10∆): 1.55 ± 0.064 | protein stability index (pdr5∆): 1.23 ± 0.061 | protein stability index (san1∆): 1.15 ± 0.093 | protein stability index (ubr1∆): 1.08 ± 0.11

TSALSELSGLISSAKLD [QCR2]
protein stability index (doa10∆): 1.69 ± 0.1 | protein stability index (pdr5∆): 2 ± 0.083 | protein stability index (san1∆): 1.7 ± 0.13 | protein stability index (ubr1∆): 1.94 ± 0.11

FASLRVLPDADVKLLHS [YJL039C/NUP192]
protein stability index (pdr5∆): 2.11 ± 0.1 | protein stability index (san1∆): 1.54 ± 0.2 | protein stability index (ubr1∆): 2.14 ± 0.11

ILRKSFDFLMNMPNCDY [RPN2]
protein stability index (doa10∆): 1.3 ± 0.099 | protein stability index (pdr5∆): 1.1 ± 0.092 | protein stability index (san1∆): 1.23 ± 0.12 | protein stability index (ubr1∆): 1.16 ± 0.041

GKPHFSLLGGFDENIAR [PCI8]
protein stability index (doa10∆): 3.18 ± 0.11 | protein stability index (pdr5∆): 2.91 ± 0.12 | protein stability index (san1∆): 3.25 ± 0.095 | protein stability index (ubr1∆): 2.96 ± 0.076

INELFKKYTQNNPLLLI [RPN8]
protein stability index (doa10∆): 1.85 ± 0.071 | protein stability index (pdr5∆): 1.48 ± 0.05 | protein stability index (san1∆): 1.37 ± 0.14 | protein stability index (ubr1∆): 1.11 ± 0.049

SNGLLSIVLLLLSQFGI [YML103C/NUP188]
protein stability index (doa10∆): 1.51 ± 0.12 | protein stability index (pdr5∆): 1.53 ± 0.083 | protein stability index (san1∆): 1.41 ± 0.18 | protein stability index (ubr1∆): 2.19 ± 0.079

EYNKPNSEKFVFLLTTR [ISW2]
protein stability index (doa10∆): 3.09 ± 0.19 | protein stability index (pdr5∆): 2.58 ± 0.099 | protein stability index (san1∆): 1.59 ± 0.083 | protein stability index (ubr1∆): 2.43 ± 0.12

ESMAYTAFQTQRTAQDR [YML031W/NDC1]
protein stability index (doa10∆): 3.27 ± 0.076 | protein stability index (pdr5∆): 3.27 ± 0.099 | protein stability index (san1∆): 3.23 ± 0.067 | protein stability index (ubr1∆): 2.85 ± 0.16

GAEVLIKGSKLSLGEAF [COR1]
protein stability index (san1∆): 2.32 ± 0.15 | protein stability index (ubr1∆): 2.37 ± 0.1

LEEFEFKHGPMSLINDA [SMD2]
protein stability index (doa10∆): 3.32 ± 0.073 | protein stability index (pdr5∆): 3.22 ± 0.062 | protein stability index (san1∆): 3.14 ± 0.059 | protein stability index (ubr1∆): 3.23 ± 0.055

YEAPRHGHLGFLPRKRA [RPL3]
protein stability index (doa10∆): 2.99 ± 0.1 | protein stability index (pdr5∆): 3.03 ± 0.071 | protein stability index (san1∆): 2.88 ± 0.05 | protein stability index (ubr1∆): 2.72 ± 0.09

RVVTVDGKLIDISGTMS [SMC4]
protein stability index (pdr5∆): 3.11 ± 0.19 | protein stability index (san1∆): 3.35 ± 0.06 | protein stability index (ubr1∆): 3.52 ± 0.12

RLQGIKLLDNIQEYQLC [COR1]
protein stability index (doa10∆): 2.46 ± 0.13 | protein stability index (pdr5∆): 2.24 ± 0.092 | protein stability index (san1∆): 2.06 ± 0.13 | protein stability index (ubr1∆): 2.34 ± 0.063
